In publication doi:10.1101/2025.07.01.662558 (bioRxiv, 2025):

Target: T1, Hsp90 from S. oneidensis (Hsp90So), purified, non-labeled (S. oneidensis, UniProt Q8EFF7 1-637)
T1 sequence (looked up): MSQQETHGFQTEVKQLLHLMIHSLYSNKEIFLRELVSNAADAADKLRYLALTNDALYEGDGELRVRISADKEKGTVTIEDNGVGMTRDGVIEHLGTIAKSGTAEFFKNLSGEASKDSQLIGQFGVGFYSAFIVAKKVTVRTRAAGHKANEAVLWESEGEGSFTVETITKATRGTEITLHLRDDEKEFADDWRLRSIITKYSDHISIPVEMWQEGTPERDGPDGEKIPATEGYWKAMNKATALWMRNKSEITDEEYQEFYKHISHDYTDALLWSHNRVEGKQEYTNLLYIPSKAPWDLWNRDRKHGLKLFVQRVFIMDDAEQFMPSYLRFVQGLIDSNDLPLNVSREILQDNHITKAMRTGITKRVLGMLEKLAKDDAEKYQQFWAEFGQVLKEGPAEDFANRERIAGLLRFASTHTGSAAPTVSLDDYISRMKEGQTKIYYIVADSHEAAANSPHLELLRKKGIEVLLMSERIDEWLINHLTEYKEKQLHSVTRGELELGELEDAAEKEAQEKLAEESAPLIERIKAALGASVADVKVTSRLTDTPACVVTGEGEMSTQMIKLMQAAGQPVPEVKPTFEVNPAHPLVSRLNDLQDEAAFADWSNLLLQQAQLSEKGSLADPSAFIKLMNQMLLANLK
Experiment: MST

B1: TilS from S. oneidensis (TilSSo), purified, with 6-His tag (natural protein, UniProt Q8EGF9 1-464, looked up)
chain: MTAQDLSVHIARWLDSLPLQAGSKLVLAYSGGVDSEVLAYGLSEYAKQRPDLRYQLIYVHHGLSPNADNWAKHCQARAAIYGLPVTVERVQLILGPRVSVEAEARKARYQAILPHLNPQDILLTAHHEDDQLETILLALKRGQGPKGLAAMGQIQPLSLADKGSCLQVRPLLDISREMIETFAQTRQLVHIEDESNQDDKYDRNFLRLEIIPRLKARWPSIATTASRSAQLCAEQQAIVETEVSERLPKLLVKAPVTEQTVLKLSELAAQPIEWQGILLRGFIESQEFSLPSYVQLQQMLQQLIHAKEDAKVHIRINDCVLRRFAGMLYLDSGETLSTALHITARDLHQEILTLLTQASAMVEDKIVPFALVTTGPRLRLPKADEVVSLGYGLPGQFRCQPHFRDKGRELKKLWQECAVPPWLRAEVGFLFYNDKLVMAFGLWVEKAFCAQGDEIGLSYLIANP
modifications: RED-tris-NTA 2nd generation dye (NanoTemper) on the 6-His tag
B1 showed a Kd of 1090 nM.

B2: TilSSoL340P, purified (natural protein, S. oneidensis, UniProt Q8EGF9 1-464, looked up)
chain: MTAQDLSVHIARWLDSLPLQAGSKLVLAYSGGVDSEVLAYGLSEYAKQRPDLRYQLIYVHHGLSPNADNWAKHCQARAAIYGLPVTVERVQLILGPRVSVEAEARKARYQAILPHLNPQDILLTAHHEDDQLETILLALKRGQGPKGLAAMGQIQPLSLADKGSCLQVRPLLDISREMIETFAQTRQLVHIEDESNQDDKYDRNFLRLEIIPRLKARWPSIATTASRSAQLCAEQQAIVETEVSERLPKLLVKAPVTEQTVLKLSELAAQPIEWQGILLRGFIESQEFSLPSYVQLQQMLQQLIHAKEDAKVHIRINDCVLRRFAGMLYLDSGETLSTAPHITARDLHQEILTLLTQASAMVEDKIVPFALVTTGPRLRLPKADEVVSLGYGLPGQFRCQPHFRDKGRELKKLWQECAVPPWLRAEVGFLFYNDKLVMAFGLWVEKAFCAQGDEIGLSYLIANP
modifications: RED-tris-NTA 2nd generation dye (NanoTemper)
B2: binds.
